Laboratory results: patent US20120220489A1

Assays:
[1] = biological target: pErk1/2-BSA 2.7x peptide-protein conjugate (human; bovine); test: RPA, normal assay
[2] = biological target: pErk1/2-BSA 2.7x peptide-protein conjugate (human; bovine); test: RPA standard curve, assay 2, LOD back-calculated from one-site fit
[3] = biological target: pErk1/2-BSA 2.7x peptide-protein conjugate (human; bovine); test: RPA standard curves, mean of duplicate assays
[4] = biological target: Erk1-BSA 2.7x peptide-protein conjugate (human; bovine); test: RPA standard curve, assay 2, LOD back-calculated from one-site fit
[5] = biological target: ERK1 (p44) inactive (GST tagged), human, Invitrogen PV 3312 (human) (UniProt P27361); test: as above
[6] = biological target: Erk1-BSA 2.7x peptide-protein conjugate (human; bovine); test: RPA standard curves, mean of duplicate assays
[7] = biological target: ERK1 (p44) inactive (GST tagged), human, Invitrogen PV 3312 (human) (UniProt P27361); test: RPA standard curves, mean of duplicate assays
[8] = biological target: Histone H3 recombinant protein, human, Upstate 14-494 (human) (UniProt P68431); test: RPA standard curve, assay 2, LOD back-calculated from one-site fit
[9] = biological target: Histone H3-BSA 2.7x peptide-protein conjugate (bovine); test: as above
[10] = biological target: pRb-BSA 1x peptide-protein conjugate (bovine); test: RPA, competition: +free H3 peptide 10 nM
[11] = biological target: ERK1 (p44) active (GST tagged), human, Invitrogen PV 3311 (human) (UniProt P27361); test: RPA, competition: +free H3 peptide 10 nM
[12] = biological target: Histone H3 recombinant protein, calf, Roche 11 034 758 001 (calf) (UniProt P68432); test: RPA, competition: +free H3 peptide 10 nM
[13] = biological target: Histone H3 recombinant protein, human, Upstate 14-494 (human) (UniProt P68431); test: RPA, competition: +free H3 peptide 100 nM
[14] = biological target: ERK1 (p42) active (phospho), human, Active Motif 31 152 (human) (UniProt P27361); test: RPA, competition: +free H3 peptide 100 nM
[15] = biological target: pRb-BSA 1x peptide-protein conjugate (bovine); test: RPA, competition: +free H3 peptide 100 nM
[16] = biological target: Erk1-BSA 2.7x peptide-protein conjugate (human; bovine); test: RPA, competition: +free H3 peptide 100 nM
[17] = biological target: ERK1 (p44) active (GST tagged), human, Invitrogen PV 3311 (human) (UniProt P27361); test: RPA, competition: +free H3 peptide 100 nM
[18] = biological target: pErk1/2-BSA 2.7x peptide-protein conjugate (human; bovine); test: RPA, competition: +free H3 peptide 100 nM
[19] = biological target: pRb recombinant protein, human, Active Motif 31 128 (human) (UniProt P06400); test: RPA, competition: +free H3 peptide 100 nM
[20] = biological target: ERK1 (p44) inactive (GST tagged), human, Invitrogen PV 3312 (human) (UniProt P27361); test: RPA, competition: +free H3 peptide 100 nM
[21] = biological target: ERK2 (p42), human, Biosource PHO 0104 (human) (UniProt P28482); test: RPA, competition: +free H3 peptide 100 nM
[22] = biological target: ERK1 (p44), human, Cell Signaling Technology 7416 (human) (UniProt P27361); test: RPA, competition: +free H3 peptide 100 nM
[23] = biological target: Histone H3-BSA 2.7x peptide-protein conjugate (bovine); test: RPA, competition: +free H3 peptide 100 nM
[24] = biological target: Histone H3 recombinant protein, calf, Roche 11 034 758 001 (calf) (UniProt P68432); test: RPA, competition: +free H3 peptide 100 nM
[25] = biological target: Histone H3 recombinant protein, human, Upstate 14-494 (human) (UniProt P68431); test: RPA standard curves, mean of duplicate assays
[26] = biological target: Histone H3-BSA 2.7x peptide-protein conjugate (bovine); test: RPA standard curves, mean of duplicate assays
[27] = biological target: Histone H3 recombinant protein, human, Upstate 14-494 (human) (UniProt P68431); test: RPA, competition: +free H3 peptide 10000 nM
[28] = biological target: ERK1 (p42) active (phospho), human, Active Motif 31 152 (human) (UniProt P27361); test: RPA, competition: +free H3 peptide 10000 nM
[29] = biological target: pRb-BSA 1x peptide-protein conjugate (bovine); test: RPA, competition: +free H3 peptide 10000 nM
[30] = biological target: Erk1-BSA 2.7x peptide-protein conjugate (human; bovine); test: RPA, competition: +free H3 peptide 10000 nM
[31] = biological target: ERK1 (p44) active (GST tagged), human, Invitrogen PV 3311 (human) (UniProt P27361); test: RPA, competition: +free H3 peptide 10000 nM
[32] = biological target: pErk1/2-BSA 2.7x peptide-protein conjugate (human; bovine); test: RPA, competition: +free H3 peptide 10000 nM
[33] = biological target: pRb recombinant protein, human, Active Motif 31 128 (human) (UniProt P06400); test: RPA, competition: +free H3 peptide 10000 nM
[34] = biological target: ERK1 (p44) inactive (GST tagged), human, Invitrogen PV 3312 (human) (UniProt P27361); test: RPA, competition: +free H3 peptide 10000 nM
[35] = biological target: ERK2 (p42), human, Biosource PHO 0104 (human) (UniProt P28482); test: RPA, competition: +free H3 peptide 10000 nM
[36] = biological target: ERK1 (p44), human, Cell Signaling Technology 7416 (human) (UniProt P27361); test: RPA, competition: +free H3 peptide 10000 nM
[37] = biological target: Histone H3-BSA 2.7x peptide-protein conjugate (bovine); test: RPA, competition: +free H3 peptide 10000 nM
[38] = biological target: Histone H3 recombinant protein, calf, Roche 11 034 758 001 (calf) (UniProt P68432); test: RPA, competition: +free H3 peptide 10000 nM

Erk1-BSA 2.7x peptide-protein conjugate (human; bovine), sequence (peptide, as listed by the source limits assumed, chain 1 of 2): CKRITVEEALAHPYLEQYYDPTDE
Erk1-BSA 2.7x peptide-protein conjugate (human; bovine), sequence (P02769 25-607 limits assumed, chain 2 of 2): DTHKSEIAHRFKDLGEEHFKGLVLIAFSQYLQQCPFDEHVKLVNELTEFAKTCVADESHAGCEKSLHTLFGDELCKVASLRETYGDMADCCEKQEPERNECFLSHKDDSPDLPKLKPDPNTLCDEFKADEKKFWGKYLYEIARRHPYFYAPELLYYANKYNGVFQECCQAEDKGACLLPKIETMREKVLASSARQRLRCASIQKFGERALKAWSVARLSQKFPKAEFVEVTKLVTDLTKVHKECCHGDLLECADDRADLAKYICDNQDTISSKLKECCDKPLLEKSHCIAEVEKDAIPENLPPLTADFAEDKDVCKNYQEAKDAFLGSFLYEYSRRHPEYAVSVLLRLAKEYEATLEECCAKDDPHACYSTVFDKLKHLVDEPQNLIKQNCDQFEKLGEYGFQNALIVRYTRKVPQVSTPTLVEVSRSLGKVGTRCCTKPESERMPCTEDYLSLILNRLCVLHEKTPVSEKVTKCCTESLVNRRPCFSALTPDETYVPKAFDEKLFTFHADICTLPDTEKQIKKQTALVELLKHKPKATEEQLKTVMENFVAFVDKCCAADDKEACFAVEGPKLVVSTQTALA
pRb-BSA 1x peptide-protein conjugate (bovine), sequence (P02769 25-607 limits assumed): as the sequence (P02769 25-607 limits assumed, chain 2 of 2) above
pErk1/2-BSA 2.7x peptide-protein conjugate (human; bovine), sequence (P02769 25-607 limits assumed): as the sequence (P02769 25-607 limits assumed, chain 2 of 2) above
Histone H3-BSA 2.7x peptide-protein conjugate (bovine), sequence (P02769 25-607 limits assumed): as the sequence (P02769 25-607 limits assumed, chain 2 of 2) above
UniProt P28482, sequence (P28482 2-360 limits assumed): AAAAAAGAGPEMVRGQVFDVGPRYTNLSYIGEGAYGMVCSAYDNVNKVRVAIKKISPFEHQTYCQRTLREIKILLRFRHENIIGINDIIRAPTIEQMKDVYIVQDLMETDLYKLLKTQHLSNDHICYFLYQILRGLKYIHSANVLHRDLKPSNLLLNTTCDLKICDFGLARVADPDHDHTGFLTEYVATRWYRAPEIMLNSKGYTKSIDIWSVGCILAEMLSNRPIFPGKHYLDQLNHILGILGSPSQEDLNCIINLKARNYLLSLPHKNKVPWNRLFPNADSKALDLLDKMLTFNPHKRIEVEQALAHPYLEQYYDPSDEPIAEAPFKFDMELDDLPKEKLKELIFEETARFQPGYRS
UniProt P06400, sequence (P06400 whole entry): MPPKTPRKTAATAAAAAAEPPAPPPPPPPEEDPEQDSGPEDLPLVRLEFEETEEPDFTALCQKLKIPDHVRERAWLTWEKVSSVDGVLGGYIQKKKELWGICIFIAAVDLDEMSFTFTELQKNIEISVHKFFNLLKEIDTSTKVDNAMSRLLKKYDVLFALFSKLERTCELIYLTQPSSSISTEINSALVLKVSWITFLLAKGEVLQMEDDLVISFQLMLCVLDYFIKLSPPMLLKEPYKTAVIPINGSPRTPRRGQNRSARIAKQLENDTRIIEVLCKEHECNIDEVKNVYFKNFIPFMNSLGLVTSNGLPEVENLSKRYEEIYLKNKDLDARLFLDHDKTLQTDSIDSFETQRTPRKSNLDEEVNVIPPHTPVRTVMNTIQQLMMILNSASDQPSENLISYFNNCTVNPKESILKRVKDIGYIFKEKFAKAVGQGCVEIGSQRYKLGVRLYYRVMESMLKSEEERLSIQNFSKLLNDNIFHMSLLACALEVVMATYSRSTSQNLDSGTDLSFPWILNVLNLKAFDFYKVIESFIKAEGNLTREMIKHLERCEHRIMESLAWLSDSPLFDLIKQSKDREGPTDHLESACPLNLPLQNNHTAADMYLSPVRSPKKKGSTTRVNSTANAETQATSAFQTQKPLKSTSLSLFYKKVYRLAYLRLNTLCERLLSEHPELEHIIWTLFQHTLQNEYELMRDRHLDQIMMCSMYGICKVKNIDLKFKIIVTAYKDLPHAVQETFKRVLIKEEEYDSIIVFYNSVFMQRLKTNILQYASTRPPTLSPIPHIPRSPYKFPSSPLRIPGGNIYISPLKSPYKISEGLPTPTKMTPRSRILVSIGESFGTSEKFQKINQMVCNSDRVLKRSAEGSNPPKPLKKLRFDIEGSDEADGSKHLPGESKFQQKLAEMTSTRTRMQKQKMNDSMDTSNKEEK

“p44/42 MAPK phospho (pERK1/2) Thr202/Tyr204 antibody, Cell Signaling Technology #9101” was tested, and the maximum standard curve signal [1] was 3.47 RFI, the LOD [2] was 0.032 nM and the mean LOD [3] was 0.03 nM.

In the case of “p44/42 MAPK (Erk1/2) antibody, Biosource 44-654G”, the LOD [4] is reported as 0.046 nM, the LOD [5] is reported as 0.084 nM and the mean LOD [6] is reported as 0.046 nM. The mean LOD [7] was 0.072 nM.

Histone H3 antibody, Abcam ab1791 showed an LOD [8] of 0.178 nM, an LOD [9] of 0.141 nM and a maximum standard curve signal [10] of under 0.01 RFI. The maximum standard curve signal [11] was under 0.01 RFI, the maximum standard curve signal [12] was 0.3 RFI and the maximum standard curve signal [13] was 4.45 RFI. For the same substance, the maximum standard curve signal [14] was under 0.01 RFI, the maximum standard curve signal [15] was under 0.01 RFI and the maximum standard curve signal [16] was 0.01 RFI. It also gave a maximum standard curve signal [17] of under 0.01 RFI, a maximum standard curve signal [18] of under 0.01 RFI and a maximum standard curve signal [19] of under 0.01 RFI. The maximum standard curve signal [20] was 0.02 RFI, the maximum standard curve signal [21] was under 0.01 RFI and the maximum standard curve signal [22] was under 0.01 RFI. For the same substance, the maximum standard curve signal [23] was 3.33 RFI, the maximum standard curve signal [24] was 0.2 RFI and the mean LOD [25] was 0.156 nM. It also gave a mean LOD [26] of 0.123 nM, a maximum standard curve signal [27] of 0.07 RFI and a maximum standard curve signal [28] of under 0.01 RFI. The maximum standard curve signal [29] was under 0.01 RFI, the maximum standard curve signal [30] was 0.01 RFI and the maximum standard curve signal [31] was under 0.01 RFI. It also gave a maximum standard curve signal [32] of 0.02 RFI, a maximum standard curve signal [33] of under 0.01 RFI and a maximum standard curve signal [34] of under 0.01 RFI. The maximum standard curve signal [35] was under 0.01 RFI, the maximum standard curve signal [36] was under 0.01 RFI and the maximum standard curve signal [37] was 0.19 RFI. It also gave a maximum standard curve signal [38] of under 0.01 RFI.
